How the values were obtained:
[1] = target: recombinant human epiregulin containing the epidermal growth factor (EGF) domain (R&D Biosciences Cat #1195-EP) (human) (UniProt O14944); assay: cell-based or functional assay
[2] = target: recombinant mouse epiregulin (mouse) (UniProt Q61521)
recombinant mouse epiregulin (mouse), sequence (Q61521 56-101 limits assumed): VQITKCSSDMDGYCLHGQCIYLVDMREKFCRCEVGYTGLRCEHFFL

recombinant human epiregulin containing the epidermal growth factor (EGF) domain (R&D Biosciences Cat #1195-EP) (human), sequence (O14944 63-108 limits assumed): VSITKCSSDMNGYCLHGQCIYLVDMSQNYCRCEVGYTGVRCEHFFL

Substance: rat anti-human/mouse neutralizing epiregulin antibody (R&D Systems MAB1068, clone 189611)
- IC50 of inhibition of epiregulin-induced HFF proliferation (rhEreg 100 ng/ml) [1]: 0.16 µg/mL
- IC50 of inhibition of HFF proliferation induced by 100 ng/ml rmEreg (GFP fluorescence) [2]: 0.1 µg/mL

From US20250154238A1, “METHODS AND COMPOSITIONS FOR TREATING AND PREVENTING FIBROSIS” (YALE UNIVERSITY, priority 2022, published 2025)
